In PMC12493166, “The ClpA chaperone and the two adaptor proteins modulate the fate of the model substrate tagged with a SsrA-degron of Leptospira” (Biochemical Journal, 2025):

Tests used:
[1] = biological target: T1, LinClpA (Leptospira interrogans, UniProt Q8F4D7); assay: ANS fluorescence change on oligomerization; format: binding; conditions: 2 mM nucleotide, 3 μM protein, 10 μM ANS, 8 mM MgCl2, pH 7.8; indirect, oligomerization read-out
T1 construct: gene clpA; full length, 740 residues, C-terminal 6xHis tag (pET-23a), E. coli BL21 (DE3), Ni-NTA; monomer ~82 kDa, ~492 kDa oligomer with ATP
T1 sequence (Q8F4D7 19-758): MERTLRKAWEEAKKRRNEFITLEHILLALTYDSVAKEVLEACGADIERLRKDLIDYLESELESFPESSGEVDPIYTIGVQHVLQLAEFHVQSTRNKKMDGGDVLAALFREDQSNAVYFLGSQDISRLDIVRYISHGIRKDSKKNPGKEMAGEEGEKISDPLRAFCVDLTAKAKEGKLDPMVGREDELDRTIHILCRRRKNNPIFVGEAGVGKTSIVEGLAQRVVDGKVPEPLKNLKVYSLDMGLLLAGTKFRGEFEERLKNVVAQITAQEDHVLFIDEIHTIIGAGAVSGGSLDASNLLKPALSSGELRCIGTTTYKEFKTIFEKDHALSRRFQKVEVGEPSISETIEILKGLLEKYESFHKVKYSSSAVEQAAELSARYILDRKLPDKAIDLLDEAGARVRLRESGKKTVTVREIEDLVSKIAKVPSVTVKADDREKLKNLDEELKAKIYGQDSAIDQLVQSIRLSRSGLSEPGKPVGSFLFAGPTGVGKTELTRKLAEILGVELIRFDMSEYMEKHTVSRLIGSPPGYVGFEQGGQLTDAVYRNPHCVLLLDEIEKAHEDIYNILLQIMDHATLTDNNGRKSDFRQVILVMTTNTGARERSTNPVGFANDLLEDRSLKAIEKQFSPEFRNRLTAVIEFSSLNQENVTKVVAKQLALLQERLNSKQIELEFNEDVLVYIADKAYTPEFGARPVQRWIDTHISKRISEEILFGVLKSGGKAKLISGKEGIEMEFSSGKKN
Procedure: ANS fluorescence change on oligomerization on LinClpA | pre-incubation of LinClpA with ADP, PolyP or ATP led to reductions in ANS fluorescence

[2] = biological target: T1, LinClpA; assay: malachite green phosphate release; format: biochemical; conditions: 8 mM Mg2+, pH 7.8, 37°C, 1 μM enzyme
[3] = biological target: T1, LinClpA; assay: ANS fluorescence change on oligomerization (also size-exclusion chromatography); format: binding; conditions: 2 mM nucleotide, 3 μM protein, 10 μM ANS, 8 mM MgCl2, pH 7.8; indirect, oligomerization read-out
[4] = biological target: T1, LinClpA; assay: ANS fluorescence change on oligomerization; format: binding; conditions: 2 mM nucleotide, 3 μM protein, 10 μM ANS, 8 mM MgCl2, pH 7.8; indirect, oligomerization read-out; remark: listed apart in the source
[5] = biological target: ClpS (Escherichia coli) (UniProt P0A8Q6); conditions: cited from earlier work
[6] = biological target: LinClpS1 (Clp adaptor protein ClpS1 of Leptospira interrogans) (L. interrogans serovar Copenhageni strain Fiocruz L1-130)
[7] = biological target: LinClpS2 (Clp adaptor protein ClpS2 of Leptospira interrogans) (L. interrogans serovar Copenhageni strain Fiocruz L1-130) (UniProt Q72RD1)
LinClpS2 (Clp adaptor protein ClpS2 of Leptospira interrogans) (L. interrogans serovar Copenhageni strain Fiocruz L1-130), sequence (Q72RD1 whole entry): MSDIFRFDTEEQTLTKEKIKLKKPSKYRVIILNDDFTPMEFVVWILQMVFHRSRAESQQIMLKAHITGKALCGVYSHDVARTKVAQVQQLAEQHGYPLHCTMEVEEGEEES

[8] = biological target: LinClpS1 (Clp adaptor protein ClpS1 of Leptospira interrogans) (L. interrogans serovar Copenhageni strain Fiocruz L1-130); remark: listed apart in the source
[9] = biological target: LinClpS2 (Clp adaptor protein ClpS2 of Leptospira interrogans) (L. interrogans serovar Copenhageni strain Fiocruz L1-130) (UniProt Q72RD1); remark: listed apart in the source
[10] = biological target: LinClpA (ClpA ATPase chaperone of Leptospira interrogans) (L. interrogans serovar Copenhageni strain Fiocruz L1-130); assay: ANS dye-binding fluorescence; LinClpA (3 μM) pre-incubated with ATP, GTP, CTP, UTP, ADP or PolyP (2 mM) 20 minutes at 4°C, then ANS (10 μM); excitation 350 nm, emission 400-750 nm; less ANS fluorescence read as oligomerization
[11] = biological target: LinClpP1 (ClpP1 isoform of the Clp protease of Leptospira interrogans) (L. interrogans) (UniProt Q72SG6); assay: ELISA; LinClpP1, LinClpP2, LinClpS1 or LinClpS2 (1 μM/well) coated overnight at 4°C; blocked with 3% BSA in PBS; ATP-bound LinClpA or LinClpA^∆N (0–3 μM) overlaid 2 hours at 37°C; detected with mouse anti-LinClpA; Kd by Hill plot analysis
[12] = biological target: LinClpP2 (ClpP2 isoform of the Clp protease of Leptospira interrogans) (L. interrogans) (UniProt Q72R01); assay: as above
[13] = biological target: LinClpS1 (Clp adaptor protein ClpS1 of Leptospira interrogans) (L. interrogans serovar Copenhageni strain Fiocruz L1-130); assay: as above
[14] = biological target: LinClpS2 (Clp adaptor protein ClpS2 of Leptospira interrogans) (L. interrogans serovar Copenhageni strain Fiocruz L1-130) (UniProt Q72RD1); assay: as above

ClpA, sequence (P0ABH9 whole entry): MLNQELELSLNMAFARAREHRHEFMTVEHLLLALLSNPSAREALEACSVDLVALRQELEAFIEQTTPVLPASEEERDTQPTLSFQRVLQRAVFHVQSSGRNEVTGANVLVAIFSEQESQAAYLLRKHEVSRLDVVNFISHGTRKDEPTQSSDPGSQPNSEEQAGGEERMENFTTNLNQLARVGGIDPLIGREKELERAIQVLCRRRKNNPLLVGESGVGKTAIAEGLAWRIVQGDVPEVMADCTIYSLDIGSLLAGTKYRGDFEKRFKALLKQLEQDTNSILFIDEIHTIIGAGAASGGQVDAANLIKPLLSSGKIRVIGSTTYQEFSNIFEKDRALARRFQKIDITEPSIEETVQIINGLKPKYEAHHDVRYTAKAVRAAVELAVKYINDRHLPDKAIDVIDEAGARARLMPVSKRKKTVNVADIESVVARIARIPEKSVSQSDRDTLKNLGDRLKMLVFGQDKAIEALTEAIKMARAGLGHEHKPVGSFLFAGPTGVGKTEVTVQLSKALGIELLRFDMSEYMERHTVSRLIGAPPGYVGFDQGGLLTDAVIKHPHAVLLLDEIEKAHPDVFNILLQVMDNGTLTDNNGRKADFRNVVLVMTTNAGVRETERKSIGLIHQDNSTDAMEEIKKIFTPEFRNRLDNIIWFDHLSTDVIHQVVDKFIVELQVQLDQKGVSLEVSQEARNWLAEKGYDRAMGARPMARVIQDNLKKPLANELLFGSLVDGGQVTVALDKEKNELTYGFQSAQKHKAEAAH

Compound: Nc1ncnc2c1ncn2[C@@H]1O[C@H](COP(=O)(O)OP(=O)(O)O)[C@@H](O)[C@H]1O [ADP]
- ANS fluorescence, % of pure LinClpA [1]: 65%

Compound: Nc1ncnc2c1ncn2[C@@H]1O[C@H](COP(=O)(O)OP(=O)(O)OP(=O)(O)O)[C@@H](O)[C@H]1O [ATP]
- malachite green phosphate release [2]: LinClpA primarily utilizes ATP as its substrate
- ANS fluorescence, % of pure LinClpA [3]: 50%

Compound: Nc1ccn([C@@H]2O[C@H](COP(=O)(O)OP(=O)(O)OP(=O)(O)O)[C@@H](O)[C@H]2O)c(=O)n1 [CTP]
- ANS fluorescence change on oligomerization [4]: can interact with various nucleotides, including GTP, CTP and UTP, in addition to ATP

Compound: Nc1nc2c(ncn2[C@@H]2O[C@H](COP(=O)(O)OP(=O)(O)OP(=O)(O)O)[C@@H](O)[C@H]2O)c(=O)[nH]1 [GTP]
- ANS fluorescence change on oligomerization [4]: can interact with various nucleotides, including GTP, CTP and UTP, in addition to ATP

Compound: O=c1ccn([C@@H]2O[C@H](COP(=O)(O)OP(=O)(O)OP(=O)(O)O)[C@@H](O)[C@H]2O)c(=O)[nH]1 [UTP]
- ANS fluorescence change on oligomerization [4]: can interact with various nucleotides, including GTP, CTP and UTP, in addition to ATP

Compound: ClpA (from UniProt P0ABH9)
- Kd [5]: 330 nM

Compound: LinClpA (ClpA ATPase chaperone of Leptospira interrogans) (enzyme)
- ATPase activity of LinClpA (1 μM, malachite green) with LinClpS1 1–10 μM; dose-dependent inhibition; percent reduction at 10 μM [6]: 57 % reduction
- ATPase activity of LinClpA (1 μM, malachite green) with LinClpS2 1–10 μM; dose-dependent inhibition; percent reduction at 10 μM [7]: 90 % reduction
- degradation of eGFP-SsrA (2 μM) by the LinClpAP1P2 machinery (3 µM) after 60 minutes with LinClpS1 5, 10 and 15 µM, percent of the machinery without adaptor; value at 5 µM; total suppression at 15 µM (% of LinClpAP1P2 activity) [8]: 53
- degradation of eGFP-SsrA (2 μM) by the LinClpAP1P2 machinery (3 µM) after 60 minutes with LinClpS2 5, 10 and 15 µM, percent of the machinery without adaptor; value at 5 µM; total suppression at 10 µM (% of LinClpAP1P2 activity) [9]: 39
- ANS fluorescence intensity with ADP, percent of pure LinClpA [10]: 65%
- ANS fluorescence intensity with ATP, percent of pure LinClpA [10]: 50%
- ANS fluorescence intensity with PolyP, percent of pure LinClpA [10]: 55%
- Kd [11]: 280 nM
- Kd [12]: 280 nM
- Kd [13]: 440 nM
- Kd [14]: 320 nM

Compound: LinClpA^∆N (N-domain-deleted variant of LinClpA) (domain or fragment)
- Kd [11]: 280 nM
- Kd [12]: 280 nM
